Assay results published in article PMC6399207.
Values joined by “and” are separate entries in the source; they are usually repeats but may differ in a detail not shown here. Equal entries are not always repeated.

What was measured:
[1] = target: Acinetobacter baumannii glutamate-1-semialdehyde-2,1-aminomutase (HemL), N-terminal His-tagged (Acinetobacter baumannii (strain ATCC 19606)); experiment: SEC; individually purified protein alone; Superdex 200 10/300 GL, room temperature, 50 mM Na phosphate pH 8.0, 100 mM NaCl; calibrated with ferritin, aldolase, conalbumin, ovalbumin
[2] = target: Acinetobacter baumannii glutamyl-tRNA reductase (HemA), N-terminal His-tagged (Acinetobacter baumannii (strain ATCC 19606)); experiment: SEC; sample of AbHemA and AbHemL co-expressed (pET28hemL_(6xHis)-hemA_(6xHis)) and co-purified on NiNTA; Superdex 200 10/300 GL, room temperature, 0.5 mL/min, 50 mM Na phosphate pH 8.0, 100 mM NaCl; fractions checked by SDS-PAGE; also after 16 h at 4°C without or with 0.1 M sodium citrate, and of a sample grown and purified with citrate
[3] = target: Acinetobacter baumannii glutamyl-tRNA reductase (HemA), N-terminal His-tagged (Acinetobacter baumannii (strain ATCC 19606)); experiment: SEC; individually purified protein alone; Superdex 200 10/300 GL, room temperature, 50 mM Na phosphate pH 8.0, 100 mM NaCl; calibrated with ferritin, aldolase, conalbumin, ovalbumin

## Acinetobacter baumannii glutamate-1-semialdehyde-2,1-aminomutase (HemL), N-terminal His-tagged (enzyme)
[1]
  stoichiometry N: 2
[2]
  fold increase of the 200 kDa complex fraction with 0.1 M sodium citrate against without citrate: 4 fold

## Acinetobacter baumannii glutamyl-tRNA reductase (HemA), N-terminal His-tagged (enzyme)
[3]
  stoichiometry N: 4 and 2
